As a reminder, the Kd is the concentration at which binding is half-saturated. The low end stands for tighter binding, the high end for weaker binding. By koff is commonly meant a measure of how fast the partners let go of each other. The low end stands for slow dissociation, the high end for fast dissociation. By kon is commonly meant a measure of how fast the partners come together.

The values that follow come from US20200306340A1 (ACCELERON PHARMA, published 2020).

Assay [1] concerns the target T1, activin A (UniProt P08476 311-426).
T1 sequence (looked up): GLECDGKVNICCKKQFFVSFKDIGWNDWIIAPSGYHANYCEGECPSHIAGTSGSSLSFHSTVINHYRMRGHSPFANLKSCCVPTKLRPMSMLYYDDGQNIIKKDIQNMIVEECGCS
As to the kind of experiment: cell-based or functional assay.

Assay [2] concerns the target T2, GDF11 (UniProt O95390 299-407).
T2 sequence (looked up): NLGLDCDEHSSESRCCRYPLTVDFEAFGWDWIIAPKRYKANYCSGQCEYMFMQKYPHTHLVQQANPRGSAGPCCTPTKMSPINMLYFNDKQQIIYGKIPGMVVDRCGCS
Kind of assay: cell-based or functional assay.

In assay [3] the target is T3, BMP9 (UniProt Q9UK05 320-429).
T3 construct: also called GDF2
T3 sequence (looked up): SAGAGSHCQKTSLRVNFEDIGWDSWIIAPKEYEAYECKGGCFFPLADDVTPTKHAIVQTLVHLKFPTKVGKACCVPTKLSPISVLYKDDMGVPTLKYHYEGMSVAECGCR
As to the kind of experiment: Biacore SPR; receptor-Fc captured by anti-Fc antibody, ligand injected; transient interaction. (Surface plasmon resonance follows binding to a sensor surface in real time, without labels.)

The target of assay [4] is T4, BMP6 (UniProt P22004 382-513, limits assumed).
T4 sequence (looked up): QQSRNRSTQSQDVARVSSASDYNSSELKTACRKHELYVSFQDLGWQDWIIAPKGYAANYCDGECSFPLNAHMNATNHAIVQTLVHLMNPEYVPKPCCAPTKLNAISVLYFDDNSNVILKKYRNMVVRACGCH
As to the kind of experiment: Biacore SPR; receptor-Fc captured by anti-Fc antibody, ligand injected. As for the experimental part:
(§1) Ligands were injected and allowed to flow over the captured receptor protein.

In assay [5] the target is T1, activin A. The description is as above. As for the experimental part:
as §1

Assay [6] concerns the target T5, GDF8 (UniProt O14793 267-375).
T5 construct: also called myostatin
T5 sequence (looked up): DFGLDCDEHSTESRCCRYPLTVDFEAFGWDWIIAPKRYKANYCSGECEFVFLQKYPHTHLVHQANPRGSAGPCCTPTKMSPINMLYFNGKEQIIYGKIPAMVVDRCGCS
The description is as above. As for the experimental part:
as §1

The target in assay [7] is T2, GDF11. Described as above. The protocol:
as §1

The target of assay [8] is T6, activin B (UniProt P09529 293-407).
T6 sequence (looked up): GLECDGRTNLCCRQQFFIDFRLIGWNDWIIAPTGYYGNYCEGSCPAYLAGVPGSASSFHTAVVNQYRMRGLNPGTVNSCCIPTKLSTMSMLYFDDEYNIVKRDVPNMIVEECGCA
The assay is described as above. The protocol: as §1

For assay [9], the target named is T7, GDF3 (UniProt Q9NR23 251-364).
T7 sequence (looked up): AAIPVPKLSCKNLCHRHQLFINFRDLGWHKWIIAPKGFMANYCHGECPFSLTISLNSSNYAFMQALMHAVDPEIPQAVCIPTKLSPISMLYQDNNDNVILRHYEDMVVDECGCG
The description is as above. The protocol: as §1

Assay [10] deals with T8, BMP10 (UniProt O95393 317-424).
T8 sequence (looked up): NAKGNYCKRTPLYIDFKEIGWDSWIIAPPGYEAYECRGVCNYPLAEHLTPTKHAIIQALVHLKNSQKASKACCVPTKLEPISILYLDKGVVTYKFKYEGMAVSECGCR
The assay is described as above. As for the experimental part:
as §1

The molecule “ActRIIB-Fc A64 (20-134) (from UniProt Q13705 20-134) (Fc fusion)” returned an Activin Inhibition Activity, KI (A-204 CAGA12 luciferase reporter gene assay) in assay [1] of 1000 nM. The GDF11 Inhibition Activity, KI (A-204 CAGA12 luciferase reporter gene assay) in [2] is 1000 nM.

B1: ALK4-Fc:ActRIIB-Fc heterodimer (Fc fusion)
chain 1: SGPRGVQALLCACTSCLQANYTCETDGACMVSIFNLDGMEHHVRTCIPKVELVPAGKPFYCLSSEDLRNTHCCYTDYCNRIDLRVPSGHLKEPEHPSMWGPVE
chain 2: GRGEAETRECIYYNANWELERTNQSGLERCEGEQDKRLHCYASWRNSSGTIELVKKGCWLDDFNCYDRQECVATEENPQVYFCCCEGNFCNERFTHLPEAGGPEVTYEPPPTAPT
As for B1, the Kd in [3] came to 3.4 nM; in assay [4] it was 2.7 nM; in [5], 0.012 nM; in [6], 0.55 nM; in assay [7] it was 0.003 nM; in [8], 0.006 nM. For the same molecule, the Kd was determined as 4.9 nM in assay [9] and 0.074 nM in assay [10]. Further, the koff is 0.0055 s⁻¹ in assay [4]; 0.00015 s⁻¹ in assay [5]; 0.00021 s⁻¹ in assay [6]; 0.00011 s⁻¹ in [7]; 4e-05 s⁻¹ in assay [8]; 0.017 s⁻¹ in assay [9]. The molecule also registered a koff in assay [10] of 0.0041 s⁻¹. In addition, the kon in assay [4] was 2e+06 M⁻¹ s⁻¹; in [5], 1.3e+07 M⁻¹ s⁻¹; in [6] it was 390000 M⁻¹ s⁻¹; in assay [7] it was 3.8e+07 M⁻¹ s⁻¹; in [8], 7.1e+06 M⁻¹ s⁻¹; in assay [9] it was 3.4e+06 M⁻¹ s⁻¹. This molecule yielded a kon in assay [10] of 5.6e+07 M⁻¹ s⁻¹.
